In the data set the test system is RSC complex (17 subunits, 1.197 MDa);histone octamer (recombinant) (yeast;Xenopus laevis). Nature of the data set: AFM. To be noted: RSC:mononucleosome 1:3, AFM: 1 nM RSC with 21 nM 1 kbp DNA without ATP, or RSC:mononucleosome 1:3 for 30 min with or without 4 mM ATP or ATPgS, buffer, salt, pH and temperature not in ….

As for “601 mononucleosome with 236 and 252 bp arms (240/240, 635 bp)”, the binding signal (% of substrate RSC-bound) (4 mM ATP, 50% of RSC complexes nucleosome-bound) worked out at 32; the binding signal (% of substrate RSC-bound) (4 mM ATPgS, 76% of RSC complexes on bare DNA arms) worked out at 52; the binding signal (% of substrate RSC-bound) (no ATP, 72% of RSC complexes on bare DNA arms) was 25.

These data come from paper PMC2710519.
